Experimental findings from paper doi:10.1101/528711 are described below.

Assay [1] has as its target Atto532-tUI (UniProt Q9UMX0). Nature of the assay: stopped-flow fluorescence kinetics.
A further assay deals with tIVR (UniProt P45974). Nature of the assay: other fluorescence titration.
In a further assay the target is tUI (UniProt Q9UMX0). Nature of the assay: other fluorescence titration.
The target in the next assay is Atto532-tISR (UniProt P45974). In words: other fluorescence titration.
In assay [2] the target is Atto532-tUI (UniProt Q9UMX0). In words: other fluorescence titration.

Usually Kd stands for the free concentration of one partner at which half of the binding sites on the other are occupied at equilibrium, for simple one-to-one binding. As a reminder, the Ki is the dissociation constant of the complex between target and ligand, obtained from inhibition or displacement.

Atto532-tUI, sequence (Q9UMX0 whole entry, looked up): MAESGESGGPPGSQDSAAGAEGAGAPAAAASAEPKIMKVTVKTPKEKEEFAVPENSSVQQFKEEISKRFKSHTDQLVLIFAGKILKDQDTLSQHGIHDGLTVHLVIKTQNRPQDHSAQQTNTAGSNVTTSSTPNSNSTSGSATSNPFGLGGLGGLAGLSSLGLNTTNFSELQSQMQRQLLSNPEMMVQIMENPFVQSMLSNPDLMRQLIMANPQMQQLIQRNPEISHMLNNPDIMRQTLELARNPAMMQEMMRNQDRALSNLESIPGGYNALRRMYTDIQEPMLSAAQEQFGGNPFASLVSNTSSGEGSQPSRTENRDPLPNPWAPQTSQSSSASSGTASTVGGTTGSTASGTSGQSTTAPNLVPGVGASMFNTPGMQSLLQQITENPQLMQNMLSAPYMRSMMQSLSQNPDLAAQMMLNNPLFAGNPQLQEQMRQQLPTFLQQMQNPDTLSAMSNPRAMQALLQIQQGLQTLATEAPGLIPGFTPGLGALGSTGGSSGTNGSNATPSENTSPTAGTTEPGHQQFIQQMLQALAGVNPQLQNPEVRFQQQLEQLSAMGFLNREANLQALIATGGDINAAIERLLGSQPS
tIVR, sequence (P45974 whole entry, looked up): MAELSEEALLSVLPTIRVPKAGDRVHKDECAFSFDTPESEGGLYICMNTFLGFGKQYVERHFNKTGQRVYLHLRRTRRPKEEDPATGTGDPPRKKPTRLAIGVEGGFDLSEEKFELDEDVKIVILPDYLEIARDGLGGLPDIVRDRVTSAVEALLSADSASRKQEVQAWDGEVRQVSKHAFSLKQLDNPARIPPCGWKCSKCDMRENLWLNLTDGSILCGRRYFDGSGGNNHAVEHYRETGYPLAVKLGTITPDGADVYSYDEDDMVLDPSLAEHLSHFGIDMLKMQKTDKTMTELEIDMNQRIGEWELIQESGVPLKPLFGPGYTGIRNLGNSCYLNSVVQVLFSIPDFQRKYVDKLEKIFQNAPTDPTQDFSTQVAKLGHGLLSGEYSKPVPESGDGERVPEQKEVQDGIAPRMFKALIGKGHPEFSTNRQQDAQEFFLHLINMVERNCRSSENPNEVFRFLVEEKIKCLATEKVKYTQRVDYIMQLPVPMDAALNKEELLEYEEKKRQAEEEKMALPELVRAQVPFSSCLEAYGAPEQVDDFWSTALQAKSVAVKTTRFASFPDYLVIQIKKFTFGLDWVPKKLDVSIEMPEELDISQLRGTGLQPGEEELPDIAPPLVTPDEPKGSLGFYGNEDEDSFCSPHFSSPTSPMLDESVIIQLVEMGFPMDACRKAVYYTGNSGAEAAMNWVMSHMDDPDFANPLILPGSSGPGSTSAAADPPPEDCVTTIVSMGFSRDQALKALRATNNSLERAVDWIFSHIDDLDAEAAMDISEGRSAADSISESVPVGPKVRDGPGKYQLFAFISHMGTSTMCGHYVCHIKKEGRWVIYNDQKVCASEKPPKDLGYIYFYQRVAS
Nedd8, sequence (Q15843 1-76): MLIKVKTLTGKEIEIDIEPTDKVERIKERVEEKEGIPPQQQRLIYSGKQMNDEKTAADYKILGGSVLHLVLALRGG
tUI, sequence (Q9UMX0 whole entry, looked up): as the sequence (Q9UMX0 whole entry, looked up) above
Atto532-tISR, sequence (P45974 whole entry, looked up): as the sequence (P45974 whole entry, looked up) above

For “ubiquitin (from UniProt P0CG48 1-76) (natural protein)”, the dissociation constant (Kd) in the assay with Atto532-tUI [1] came out at 0.0564 nM; with tIVR, 25.4 nM; in the assay with Atto532-tISR, 24.3 nM; with Atto532-tUI [2] it was 0.066 nM. In addition, the Ki in the assay with tIVR worked out at 19 nM; in the assay with tUI, 0.194 nM.
For the substance “Nedd8 (from UniProt Q15843 1-76) (natural protein)”, the fold preference for Ub over Nedd8 in the assay with tIVR amounted to 3000 fold. The substance further displayed a fold higher affinity for Ub than Nedd8 with Atto532-tUI [2] of 120 fold.
